# According to publication PMC4249841:
# Biological target: Hsp70-mCherry (human, cytoplasmic, heat-inducible hsp70 (hsp72) with a C-terminal mCherry tag) (human) (UniProt P0DMV8)
# Experiment: FRET or BRET; live U2OS cells co-expressing the GFP-tagged PGK (donor) and the mCherry-tagged partner (acceptor); donor/acceptor (D/A) fluorescence ratio per cell under steady illumination, temperature titration 20°C-45°C, fitted by a two-state model
# Sequence of UniProt P0DMV8 (P0DMV8 whole entry): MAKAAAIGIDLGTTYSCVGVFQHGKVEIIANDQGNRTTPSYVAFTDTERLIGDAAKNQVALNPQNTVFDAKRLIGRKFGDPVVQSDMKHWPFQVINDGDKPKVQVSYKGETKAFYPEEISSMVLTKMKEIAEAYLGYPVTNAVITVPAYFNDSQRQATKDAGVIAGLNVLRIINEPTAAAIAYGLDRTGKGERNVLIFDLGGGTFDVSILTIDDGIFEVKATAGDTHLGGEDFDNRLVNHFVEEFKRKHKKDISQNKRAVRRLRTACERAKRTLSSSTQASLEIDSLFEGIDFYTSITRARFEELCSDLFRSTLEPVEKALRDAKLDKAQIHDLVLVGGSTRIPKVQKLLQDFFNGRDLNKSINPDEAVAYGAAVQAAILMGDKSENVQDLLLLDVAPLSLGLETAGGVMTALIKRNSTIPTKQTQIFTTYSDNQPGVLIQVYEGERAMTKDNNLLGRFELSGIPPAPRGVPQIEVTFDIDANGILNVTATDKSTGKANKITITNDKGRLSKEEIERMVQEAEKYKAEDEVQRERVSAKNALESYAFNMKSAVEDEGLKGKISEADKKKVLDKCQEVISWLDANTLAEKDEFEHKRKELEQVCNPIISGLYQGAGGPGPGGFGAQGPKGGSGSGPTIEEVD
substance,measurement,value
"ltPGK-GFP (low melting temperature mutant of phosphoglycerate kinase, Y122W/W308F/W333F, with an N-terminal GFP tag) (enzyme)",temperature midpoint of binding,39 °C
same,temperature of binding onset,35 °C
